Experimental data published in the DeepSol protein solubility set.

Assay: soluble on expression in E. coli; label from the status in PepcDB or PDB records

| Sequence | soluble on expression in E. coli |
| --- | --- |
| DQPGHYVGTDPNLGALSAFLAGETEEVPDANEIMPVLWDMVTTGVAQGESARAVRTAFVSNPSAALTGLSESLVPAEKQPGRVVESGLVRAKFTASNDESGSSHHRAPWIAVLELLGSLDAMTDQSGKPIELETDAPAPAGKKLSEGVVAKRALLAEIKELAGENAVAIVKTARDTTLDTACIDQSTVAIAGMAKAQQEALLEMFFSRSKIVPGLIMDDGNRLLAVFETFNKRVELNELLASEGLIKSAVTLLRTLRSTDKNLYSLARIRFDKLDGVDTNAPENMWSLTPVVSLVLALAARMHAHGFISSNKTLDSATPGWAKLADIVPDLVTGDLIAADAIILAMKKPGIA | not soluble |
| DRCYNCGGLDHHAKECKLPPQPKKCHFCQSISHMVASCPLKAQQGPSAQG | soluble |
| DSKDTRQFVKSIAKDAHRIGQDNDIYASVMIAQAILESDSGRSALAKSPNHNLFGIKGAFEGNSVPFNTLEADGNKLYSINAGFRKYPSTKESLKDYSDLIKNGIDGNRTIYKPTWKSEADSYKDATSHLSKTYATDPNYAKKLNSIIKHYQL | not soluble |
| DSMADITACPGTDTCNLGISSSTGLSVEIEKMLLEEFPDTVFNKNIKIKISGCMNACGQHTIGNIGFHGMSIKNGTNVLPAMQVMLGGGLEPDGTGTIADKILKLPTRRCVEAVREILTDYDTNATEGEYFNDYYRRQVAAEKMYFYKLLKPLSDLETLTELDYIDL | not soluble |
| DTDGLWAALTEAAASVEKLLATLPEHGARSSAERAEIAAAHDAARALRVRFLDTHADAVYDRLTDHRRVHLRLAELVEAAATAFPGLVPTQQQLAVERSLPQAAKEGHEIDQGIFLRAVLRSPLAGPHLLDAMLRPTPRALELLPEFVRTGEVEMEAVHLERRDGVARLTMCRDDRLNAEDGQQVDDMETAVDLALLDPGVRVGLLRGGVMSHPRYRGKRVFSAGINLKYLSQGGISLVDFLMRKELGYIHKLVRGVLTNDDRPGWWHSPRIEKPWVAAVDGFAIGGGAQLLLVFDRVLASSDAYFSLPAAKEGIIPGAANLRLGRFAGPRVSRQVILEGRRIWAKEPEARLLVDEVVEPDELDAAIERSLTRLDGDAVLANRRMLNLADESPDGFRAYMAEFALMQALRLYGHDVI | soluble |
| DTTKNIFIEGDNLDALKLLQENYLGKIKMVYIDPPYNTGNDFVYADDFVDEVSEFFLRSNQVDREGNRLTANPETSGRFHSDWLSMMYSRLKLSRNLLRDDGLIVIHIDENEYPNLEKLLAEIYGEKNNLGTIVWDKRNPKGDATGVAQQHELICIYCKDREFFKTTCEFQRPKENAGKMLAKAKQILSKEGGVTEKARKEYKDWVNQQDLTGGEKAYNQIDDNGDVFRPVSMAWPNKKKAPEDYFIPLIHPVTGKECPVPERGWRNPPATMQELLKSGLIIFGPDEKTQPTRKYRLNDNLFENIPSLLYYGGSDDALLADLKIPFDTPKPVQVAKRLIQSICKNDDILIDFFAGSCTAAHALMLLNAEDGANRRFIMVQLPEECDEKSEAKKLGYSVVSEIGKNRIRRAAKKIREEFSEILATRNTELDLGFRLLKVDTSNMAD | not soluble |
| DVTGLPTGFRDLDRITTGLHPDQLIILAARPAVGKTAFVLNIAQNVGTKQNRPVAIFSLEMGAESLVDRMLAAEGMVDSHSLRTGQLTDQDWNNVTIAQGALADAPIYIDDTPGIKITEIRARSRKLSQEVDDGLGLIVIDYLQLISGTRPENRQQEVSEISRQLKILAKELKVPVIALSQLSRGVEQRQDKRPVLSDI | not soluble |
| DVTNAEKLVYKYTNIAHSANPMYEAPSITDGKIFFNRKFKTPSGKEAACASCHTNNPANVGKNIVTGKEIPPLAPRVNTKRFTDIDKVEDEFTKHCNDILGADCSPSEKANFIAYLLTETKPTK | soluble |
| DYMRFALKGKQGKGMKMPEGVVSSNGEYYMKERMVTDPGLTLDNSGIAPQPSRRAKEDDGGAAEGGRQAADDEVRQDMQETPVLPSNTGSKQQQLDSLF | not soluble |
| EAAPAPAGKGKILAVTACPTGIAHTFMAADALKEKAKELGVEIKVETNGSSGIKHKLTAQEIEDAPAIIVAADKQVEMERFKGKRVLQVPVTAGIRRPQELIEKAMNQDAPIYQGSGGGSA | not soluble |
| EAGMAAITAATAGNMQSQINYTRSNEKEADRFGIATLAKAGFDVQAMPRFFGRLADEYRYASKPPPMLLTHPLPEDRVADSRQRAQAYPPMRIAPSIDYHLARARIVARYAGIDGQAALGWFERTQKKASADIMPSFDYGRALVHLDNKRLSQAEPILKKLLAQDPGNPFYLDAMTDLYIEKKQPQKAVELLNSALKRNPQNKVLTINYANALLEANQNDQAVRTLQRYTHDNPEDSNGWQLLSKGYHALGRSDEELAARAEILALRANWNKAIQYYSEASKMAELGSLEQARYDARIDQLMIQRDRFMALQ | not soluble |
| EAVREMVCEDDLSQTFITDGSLPACDITLEQAQNLARHVWGQGFAPPSFTDEFHVVRQQPLGAEGKHKKVWLQKDGCEFEAMFWRCSEDIPEYIRTVYRPVANEWRNNLELQLYIDYWEAA | not soluble |
| EDSKALDEVVVVAFGTQKKESMISSIETIKPAELKVPSSNLTTALAGRMSGVIAYQRSGEPGKDNADFFIRGVTTFGYKKDPLILIDGIETTTTELARLQPDDIAAFSILKDATATALYGARGANGVIQVATKEGKEGA | not soluble |
| EERNDWHFNIGAMYEIENVEGYGEDMDGLAEPSVYFNAANGPWRIALAYYQEGPVDYSAGKRGTWFDRPELEVHYQFLENDDFSFGLTGGFRNYGYHYVDEPGKDTANMQRWKIAPDWDVKLTDDLRFNGWLSMYKFANDLNTTGYADTRVETETGLQYTFNETVALRVNYYLERGFNMDDSRNNGEFSTQEIRAYLPLTLGNHSVTPYTRIGLDRWSNWDWQDDIEREGHDFNRVGLFYGYDFQNGLSVSLEYAFEWQDHDEGDSDKFHYAGVGVNYSFHHHHHH | soluble |
| EFVDPSWNYFDNRVHDIAIMEGQSQTKKWQKWLSQIEKRFGVDRNILLAIWSMESNYGKVLANKDVMRDTIRSLATLAYADQKRAKYAQAQLIAAMTILQNGEITRAQLTGSWAGAMGHTQFIPSSYLAYAIDMDGDGRRDIWTSVPDALATAANLLYMNGWQSKLPWGVEVKLPQGKNLPEDWHSFEQWAKLGVKQANGKHLPSLSERAILKYPDGPEGPIFLVTKNFFVLKRYNNADRYAFAVALLANRIAGHSGL | not soluble |
| EGPIDKLKTPEDVPNDPLPLISDFEWSTLDIDDNLQLDELYKLLYDNYVEDIDATFRFKYSHEFFQWALKPPGWRKDWHVGVRVKSTGKLVAFIAATPVTFKLNKSNKVIDSVEINFLCIHKKLRNKRLAPVLIKEITRRVNKQNIWQALYTGGSILPTPLTTCRYQHRPINWSKLHDVGFSHLPPNQTKSSMVASYTLPNNPKLKGLRPMTGKDVSTVLSLLYKYQERFDIVQLFTEEEFKHWMLGHDENSDSNVVKSYVVEDENGIITDYFSYYLLPFTVLDNAQHDELGIAYLFYYASDSFEKPNYKKRLNELITDALITSKKFGVDVFNCLTCQDNTYFLKDCKFGSGDGFLNYYLFNYRTFPMDGGIDKKTKEVVEDQTSGIGVVLL | soluble |
| EHLPKLQPRPYSCASSSLFHPGKLHFVFNIVEFLSTATTEVLRKGVCTGWLALLVASVLQPNIHASHEDSGKALAPKISISPRTTNSFHLPDDPSIPIIMVGPGTGIAPFIGFLQHREKLQEQHPDGNFGAMWLFFGCRHKDRDYLFRKELRHFLKHGILTHLKVSFSRDAPVGEEEAPAKYVQDNIQLHGQQVARILLQENGHIYVCGDAKNMAKDVHDALVQIISKEVGVEKLEAMKTLATLKEEKRYLQDIWS | soluble |
| EHRKVERGILAYQPGKLLVRGDTPLFKIERLLGIDLDHIEAETLAGLIYETLKRVPEEEEQMEVEGLRIIIKKMKGPKIVLAKVLKLD | not soluble |
| EIKQNEQRLNAIVQNLVSGVMLINVDKQVIMTNRTMYQILGETEITGKPFYEVIKSFALSQLIDATFETKTMQQKEIILYFPREMILDASVSPILAENGEITGIILLLHDIT | not soluble |
| EKAEDCWELQISPELLAHGRQKILDLLNEGSARDLRSLQRIGPKKAQLIVGWRELHGPFSQVEDLERVEGITGKQMESFLKANILGLAAGQ | soluble |
| EKKPYIISNVGMTLDGKLATINNDSRISCEEDLIRVHKIRANVDGIMVGIGTVLKDDPRLTVHKIKSDRNPVRIVVDSKLRVPLNARVLNKDAKTIIATTEDTNEEKEKKIKILEDMGVEVVKCGRGKVDLKKLMDILYDKGIKSILLEGGGTLNWGMFKEGLVDEVSVYIAPKIFGGKEAPTYVDGEGFKTVDECVKLELKNFYRLGEGIVLEFKVKK | soluble |
| ENKTLDEVTSDLVSRGAKFVGEELQLDVGGLLLHFFNYNGKIVVSSMKKVGFLQTLNRKRLENHPSFVFLEKEVPKSVFLEVFVDLYTLFDKLLGFSPRSSLLLIGYEEDGLIKYRLEVM | not soluble |
| EPDSVSIPITCCFNVINRKIPIQRLESYTRITNIQCPKEAVIFKTQRGKEVCADPKERWVRDSMKHLDQIFQNLKP | soluble |
| EPFWADLQPRVAFVERGGSLWLNCSTNCPRPERGGLETSLRRNGTQRGLRWLARQLVDIREPETQPVCFFRCARRTLQARGLIRTFQRPDRVELMPLPPWQPVGENFTLSCRVPGAGPRASLTLTLLRGAQELIRRSFAGEPPRARGAVLTATVLARREDHGANFSCRAELDLRPHGLGLFENSSAPRELRTFSLS | soluble |
| EPKLDMNKQKISPAEVAKHNKPDDCWVVINGYVYDLTRFLPNHPGGQDVIKFNAGKDVTAIFEPLHAPNVIDKYIAPEKKLGPLQGSMPPELVCPPYAPGETKEDIARKEQLKSLLPPLDNIINLYDFEYLASQTLTKQAWAYYSSGANDEVTHRENHNAYHRIFFKPKILVDVRKVDISTDMLGSHVDVPFYVSATALCKLGNPLEGEKDVARGCGQGVTKVPQMISTLASCSPEEIIEAAPSDKQIQWYQLYVNSDRKITDDLVKNVEKLGVKALFVTVDAPSLGQREKDMKLKFSNTKAGPKAMKKTNVEESQGASRALSKFIDPSLTWKDIEELKKKTKLPIVIKGVQRTEDVIKAAEIGVSGVVLSNHGGRQLDFSRAPIEVLAETMPILEQRNLKDKLEVFVDGGVRRGTDVLKALCLGAKGVGLGRPFLYANSCYGRNGVEKAIEILRDEIEMSMRLLGVTSIAELKPDLLDLSTLKARTVGVPNDVLYNEVYEGPTLTEFEDA | soluble |
| EPNRLIKEKSPYLLQHAYNPVDWYPWGEEAFEKARKENKPVFLSIGYSTCHWCHMMAHESFEDEEVAGLMNEAFVSIKVDREERPDIDNIYMTVCQIILGRGGWPLNIIMTPGKKPFFAGTYIPKNTRFNQIGMLELVPRIKEIWEQQHEEVLDSAEKITSTIQEMIKESSG | soluble |
| EQKVEAFNIQYKSRTSFKVQVKLNAQGKYQKSQVQSYLQQIGLNDGDLKQESGTLSADLIFTYTVPESNLFSRKNFDTLMKKINFNTTLKIDMVGKDEIMKKILQSTTFTNNLSSQTFQDQSIDLLPYLLYS | not soluble |
| ERLFQVFISLGVGKSAIRQHLASLDPTNSRDIEALADELSGKRPLLYRGVAMLLAHHSFAKSLREDAAGMWLQEKRHQLHSGLR | not soluble |
